Experimental data reported in PMC7465668.

Target: S-enantioselective imine reductase from Mycobacterium smegmatis (S-IRED-Ms) (Mycobacterium smegmatis)
Assay: crystal structure; holo-S-IRED-Ms co-crystallised with 5 mM NADPH; 10 mg/mL protein, 20% (w/v) PEG 3350, 0.2 M sodium formate, sitting drop, 4 °C; 1.55 Å, five monomers in the asymmetric unit

Substance: S-enantioselective imine reductase from Mycobacterium smegmatis (S-IRED-Ms) (enzyme)
- stoichiometry N: 2
